Measured values reported in patent publication KR20220134462A (dated 2022).

T1: MCF-7 세포주의 세포막에 발현된 B7-H3 (UniProt Q5ZPR3 29-534)
T1 construct: whole, on cells; Endogenous B7-H3 of the MCF-7 cell line; also called MCF-7 cell
T1 sequence (looked up): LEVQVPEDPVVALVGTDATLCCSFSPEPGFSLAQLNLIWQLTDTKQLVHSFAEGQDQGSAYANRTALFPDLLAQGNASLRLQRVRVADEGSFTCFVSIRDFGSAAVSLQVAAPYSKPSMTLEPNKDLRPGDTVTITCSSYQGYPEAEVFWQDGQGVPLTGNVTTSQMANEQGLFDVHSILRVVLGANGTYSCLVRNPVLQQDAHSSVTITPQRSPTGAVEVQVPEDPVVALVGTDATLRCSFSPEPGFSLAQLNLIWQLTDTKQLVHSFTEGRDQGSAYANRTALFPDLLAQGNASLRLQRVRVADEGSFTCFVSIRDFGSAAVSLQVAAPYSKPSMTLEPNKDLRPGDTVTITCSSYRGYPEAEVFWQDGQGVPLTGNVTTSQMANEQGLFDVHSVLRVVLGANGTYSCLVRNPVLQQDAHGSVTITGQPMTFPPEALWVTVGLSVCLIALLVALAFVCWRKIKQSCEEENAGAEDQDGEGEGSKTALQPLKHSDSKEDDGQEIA


Legend:
RKO/B7H3 세포주에 과발현된 B7-H3 = RKO/B7H3 세포주에 과발현된 B7-H3 (UniProt Q5ZPR3); assay: cell ELISA on fixed RKO/B7H3 cells (표 3)
[1] = target: T1, MCF-7 세포주의 세포막에 발현된 B7-H3; assay: cell ELISA on fixed MCF-7 cells (표 2)

Binder	EC50 (RKO/B7H3 세포주에 과발현된 B7-H3) [nM]	EC50 [1] [nM]
#2 항체 (B7-H3 항체) (antibody, V domains shown) VH: EVQLLESGGGLVQPGGSLRLSCAASGFTFSAYYMIWVRQAPGKGLEWVSITNPSGGVTSYAQKFQGRFTISRDNSKNTLYLQMNSLRAEDTAVYYCARVGGRGFDIWGQGTLVTVSS VL: EIVLTQSPGTLSLSPGERATLSCHASQGISNYVAWYQQKPGQAPRLLIYDASNRATGIPDRFSGSGSGTDFTLTISHLEPEDFAVYYCQQSYSTLLTFGQGTKVEIK	0.036	0.061
#4 항체 (B7-H3 항체) (antibody, V domains shown) VH: EVQLLESGGGLVQPGGSLRLSCAASGFTFSSYGMHWVRQAPGKGLEWVSAISGSGTSIYYANSVKSRFTISRDNSKNTLYLQMNSLRAEDTAVYYCARGAGWFDYWGQGTLVTVSS VL: QSVLTQPPSASGTPGQRVTISCSGSTSNIGSNTVNWYQQLPGTAPKLLIYGKNIRPNGVPDRFSGSKSGTSASLAISGLHSEDEADYYCQSYDSSLSGWVFGGGTKLTVL	0.042	0.502
#3 항체 (B7-H3 항체) (antibody, V domains shown) VH: EVQLLESGGGLVQPGGSLRLSCAASGFTFSTYYMTWVRQAPGKGLEWVSIINPRGGSTSYAEKFQGRFTISRDNSKNTLYLQMNSLRAEDTAVYYCARWNLGMDVWGQGTLVTVSS VL: EIVLTQSPGTLSLSPGERATLSCRVSQSISSYLNWYQQKPGQAPRLLIYDASHRATGIPDRFSGSGSGTDFTLTISRLEPEDFAVYYCQQYYAPSVTFGQGTKVEIK	0.065	0.197
#1 항체 (B7-H3 항체) (antibody, V domains shown) VH: EVQLLESGGGLVQPGGSLRLSCAASGFTFSSYAMSWVRQAPGKGLEWVSTITGSGGSTYYADSVKGRFTISRDNSKNTLYLQMNSLRAEDTAVYYCARYKSGAFDIWGQGTLVTVSS VL: EIVLTQSPGTLSLSPGERATLSCRASQGIGNYLGWYQQKPGQAPRLLIYTASSLQSGIPDRFSGSGSGTDFTLTISRLEPEDFAVYYCQQGYSTPSWTFGQGTKVEIK	0.015	0.605
#5 항체 (B7-H3 항체) (antibody, V domains shown) VH: EVQLLESGGGLVQPGGSLRLSCAASGFTFSTYAMSWVRQAPGKGLEWVSAISGSGGSTLYADSVKGRFTISRDNSKNTLYLQMNSLRAEDTAVYYCARGGSATWAFDLWGQGTLVTVSS VL: QSVLTQPPSASGTPGQRVTISCSGSSSNIGSNYVYWYQQLPGTAPKLLIYRNNQRPSGVPDRFSGSKSGTSASLAISGLRSEDEADYYCGTWDSSLSGVVFGGGTKLTVL	0.091	1.74
#8 항체 (B7-H3 항체) (antibody, V domains shown) VH: EVQLLESGGGLVQPGSSLRLSCAASGFTFSSYWISWVRQAPGKGLEWVSEISPSGNTNYNPSLKSRFTISRDNSKNTLYLQMNSLRAEDTAVYYCAREVGDLLDYWGQGTLVTVSS VL: QSVLTQPPSASGTPGQRVTISCSGSNIGNNYVSWYQQLPGTAPKLLIYQDSKRPSGVPDRFSGSKSGTSASLAISGLRSEDEADYYCLVWDRSSDHFVFGGGTKLTVL	0.06	0.159
#7 항체 (B7-H3 항체) (antibody, V domains shown) VH: EVQLLESGGGLVQPGGSLRLSCAASGFTFSNFWIGWVRQAPGKGLEWVSWINPPGSITSYADSVKGRFTISRDNSKDTLYLQMNSLRAEDTAVYYCAREVGDVLDYWGQGTLVTVSS VL: QSVLTQPPSASGTPGQRVTISCTGTSSDIGRYNYVSWYQQLPGTAPKLLIYRNTQRPSGVPDRFSGSKSGTSASLAISGLRSEDEADYYCGTWDSSLNAYVFGGGTKLTVL	0.187	1.01
#6 항체 (B7-H3 항체) (antibody, V domains shown) VH: EVQLLESGGGLVQPGGSLRLSCAASGFTFSTYAISWVRQAPGKGLEWVSSIYYSGYTHYNPSLESRFTISRDNSKNTLYLQMNSLRAEDTAVYYCARGYSGWMDVWGQGTLVTVSS VL: QSVLTQPPSASGTPGQRVTISCGGNNIGSKSVHWYQQLPGTAPKLLIYDNNKRPSGVPNRFSGSKSGTSASLAISGLRSEDEADYYCAAWDDSLNVPVFGGGTKLTVL	0.065	0.234
#9 항체 (B7-H3 항체) (antibody, V domains shown) VH: EVQLLESGGGLVQPGGSLRLSCAASGFTFSSYAMNWVRQAPGKGLEWVSTISGSGGQTYYADSVKGRFTISRDNSKNTLYLQMNSLRAEDTAVYYCARWRSIWAFDYWGQGTLVTVSS VL: QSVLTQPPSASGTPGQRVTISCSDNNIGSKSVHWYQQLPGTAPKLLIYDNNKRPSGVPDRFSGSKSGTSASLAISGLRSEDEADYYCGTWDDSLSGPVFGGGTKLTVL	0.05	0.322
